# Earlier results as cited in article PMC8573040.
# How the values were obtained:
# [1] = target: PhoA (unfolded) (Escherichia coli) [phosphatase: P00634]
# [2] = target: MBP (unfolded) (Escherichia coli) [MBP: P0AEX9]
# Im7 (Escherichia coli) = Im7 (Escherichia coli) (UniProt Q03708)
# Chain of UniProt Q03708 (Q03708 whole entry): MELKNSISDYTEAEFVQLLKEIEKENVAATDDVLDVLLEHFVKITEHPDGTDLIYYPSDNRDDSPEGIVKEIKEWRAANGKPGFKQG
Substance,Kd [1],Kd [2],Kd (Im7 (Escherichia coli))
SecB (from UniProt P0AG86),500 nM,50 nM,
Spy (from UniProt P77754),,,2000 nM
